Test results: patent publication US20110172153A1 (GENERAL HOSPITAL, published 2011)
Square brackets hold non-standard residues; d marks the D form. Ends that are not written are not given here. hArg = N=C(N)NCCCC[C@H](N)C(=O)O; Aib = CC(C)(N)C(=O)O

T1: human parathyroid hormone receptor (PTHR) (human, UniProt Q03431 27-593)
T1 sequence: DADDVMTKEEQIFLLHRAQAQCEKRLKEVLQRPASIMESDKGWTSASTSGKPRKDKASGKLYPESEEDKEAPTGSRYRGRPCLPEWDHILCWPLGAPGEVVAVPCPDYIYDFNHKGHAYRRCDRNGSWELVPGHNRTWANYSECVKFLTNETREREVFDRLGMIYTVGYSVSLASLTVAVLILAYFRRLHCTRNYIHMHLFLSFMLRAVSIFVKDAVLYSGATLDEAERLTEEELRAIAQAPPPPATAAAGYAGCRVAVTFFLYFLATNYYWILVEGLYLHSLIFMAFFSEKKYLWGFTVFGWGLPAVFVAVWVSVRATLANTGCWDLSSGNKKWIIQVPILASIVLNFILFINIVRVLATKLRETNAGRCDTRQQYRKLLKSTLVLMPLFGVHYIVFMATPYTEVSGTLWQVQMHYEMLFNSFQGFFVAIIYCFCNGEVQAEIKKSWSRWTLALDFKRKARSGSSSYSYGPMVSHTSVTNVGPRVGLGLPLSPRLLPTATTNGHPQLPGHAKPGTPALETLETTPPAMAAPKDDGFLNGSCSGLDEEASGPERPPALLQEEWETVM

T2: rat parathyroid hormone receptor (PTHR) (rat, UniProt P25961 27-591)
T2 sequence: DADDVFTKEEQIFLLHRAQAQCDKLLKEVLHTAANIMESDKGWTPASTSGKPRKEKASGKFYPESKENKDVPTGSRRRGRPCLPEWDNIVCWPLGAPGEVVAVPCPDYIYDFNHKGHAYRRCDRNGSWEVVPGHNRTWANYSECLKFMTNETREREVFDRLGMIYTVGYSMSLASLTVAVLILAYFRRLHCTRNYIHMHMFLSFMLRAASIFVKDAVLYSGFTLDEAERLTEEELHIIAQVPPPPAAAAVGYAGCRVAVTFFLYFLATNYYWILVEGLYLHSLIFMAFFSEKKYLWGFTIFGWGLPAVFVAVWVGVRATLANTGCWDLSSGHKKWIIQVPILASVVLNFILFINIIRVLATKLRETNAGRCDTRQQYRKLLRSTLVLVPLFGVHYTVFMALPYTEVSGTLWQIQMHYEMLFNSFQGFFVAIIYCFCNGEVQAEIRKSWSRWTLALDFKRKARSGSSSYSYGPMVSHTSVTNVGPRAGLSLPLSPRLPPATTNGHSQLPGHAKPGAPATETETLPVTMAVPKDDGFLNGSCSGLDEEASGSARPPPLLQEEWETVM


Tests used:
[1] = biological target: T1, human parathyroid hormone receptor …; experiment: cell-based or functional assay
[2] = biological target: T2, rat parathyroid hormone receptor (PTHR); experiment: cell-based or functional assay
[3] = biological target: T1, human parathyroid hormone receptor …; experiment: competition radioligand binding, human PTH1 receptor R0
Method: (§1) Binding Studies. Binding studies were performed using cell membranes as described (Dean et al., Mol Endocrinol 20(4):931-43 (2006)). […] Reactions contained a total membrane protein concentration of 20 to 100 μg/mL, and a total radioactivity concentration of approximately 150,000 cpm/ml. Unlabeled peptide ligands and/or GTPγS (Sigma-Aldrich Inc. St. Louis, Mo.) were added to the reactions as indicated. At the end of the reaction, bound and free radioligand were separated by vacuum filtration using a 96-well vacuum filter plate and vacuum filter apparatus (Multi-Screen system with Durapore HV, […] filters; Millipore Corp., Milford, Mass.); the air-dried filters were then detached from the plate and counted for gamma radioactivity using a gamma counter.
(§2) To assess the capacities of various unlabeled peptide ligands to bind to the G protein-uncoupled and G protein-coupled PTHR conformations (R⁰ and RG, respectively), membranes were prepared from transiently transfected COS-7 cells and the following assay conditions.

[4] = biological target: T1, human parathyroid hormone receptor …; experiment: screen, binding to human PIR RG relative to parent PTHrP(1-28)NH; footnote not given
[5] = biological target: T1, human parathyroid hormone receptor …; experiment: screen, binding to human PIR R0 relative to parent PTHrP(1-28)NH; footnote not given
[6] = biological target: T1, human parathyroid hormone receptor …; experiment: competition radioligand binding, human PIR R0
Method: as §1, §2

[7] = biological target: T1, human parathyroid hormone receptor …; experiment: competition radioligand binding, human PIR RG
Method: as §1, §2

[8] = biological target: T1, human parathyroid hormone receptor …; experiment: ratio of R0 IC50 to RG IC50, hPTHR
[9] = biological target: T1, human parathyroid hormone receptor …; experiment: competition radioligand binding, hPTHR RG conformation
Method: as §1, §2

[10] = biological target: T1, human parathyroid hormone receptor …; experiment: competition radioligand binding, hPTHR R0 conformation
Method: as §1, §2

| Binder | human PIR RG (% parent) [4] [% parent] | human PIR R0 (% parent) [5] [% parent] | also measured |
| --- | --- | --- | --- |
| AVAEIQLMHQRAKWLNSMRRVEWLRKKLQDVHNF-OH [Mc-hPTH(1-34)OH] |  |  | cAMP in HKRK-B7 cells, EC50 [1]: 3.25 nM; cAMP in HKRK-B7 cells, Max [1]: 65.5 pm/well |
| WV[Aib]EIQLMHQ[hArg]AKWLNSMRRVEWLRKKL [Trp^1-M-PTH(1-28)] |  |  | IP3 formation, fold less potent than M-PTH(1-28) [2]: 100 fold |
| AVAEIQLMHQRGKHLNSMERVEALRKKLQDVHNF-OH (also called [A^1,A^3,A^23,Q^10,R^11]-PTH(1-34)OH; [A1,3,23,Q10,R11]-hPTH(1-34)) [[A1,3,23,Q10,R11]-PTH(1-34)OH] |  |  | cAMP in HKRK-B7 cells, EC50 [1]: 1.76 nM; cAMP in HKRK-B7 cells, Max [1]: 63.8 pm/well; IC50 [3]: 197 nM |
| SVSEIQLMHNLGKHLNSMERVEWLRKKL-NH2 [hPTH(1-28)NH2] |  |  | acute cAMP in ROS17/2.8 cells, EC50 (FIG. 21A) [2]: 7.6 nM; cAMP in ROS17/2.8 cells, EC50 [2]: 7.39 nM |
| AVSEHQLLHDKGKSIQDARRRAFLHALI-NH2 [A18,22,26-PTHrP(1-28)NH] | 167 | 160 |  |
| AVSEHQLLHDKGKSIQDARRRLFLHALI-NH2 [A18,26,L22-PTHrP(1-28)NH] | 163 | 133 |  |
| AVSEHQLLHDKGKSIQDERRRLFLHKLI-NH2 [E18,L22,K26-PTHrP(1-28)NH] | 152 | 64.4 |  |
| AVSEHQLLHDKGKSIQDERRRNFLHKLI-NH2 [E18,N22,K26-PTHrP(1-28)NH] | 147 | 84.4 |  |
| AVSEHQLLHDKGKSIQDARRRWFLHALI-NH2 [A18,26,W22-PTHrP(1-28)NH] | 120 | 126 |  |
| AVSEHQLLHDKGKSIQDERRRWFLHKLI-NH2 [E18,W22,K26-PTHrP(1-28)NH] | 149 | 46.6 |  |
| AVSEHQLLHDKGKSIQDERRRSFLLKLI-NH2 [E18,S22,L25,K26-PTHrP(1-28)NH] |  |  | IC50 [6]: 2060 nM; IC50 [7]: 0.11 nM |
| AVSEHQLLHDKGKSIQDARRRSFLHKLI-NH2 [A18,S22,K26-PTHrP(1-28)NH] | 175 | 15 |  |
| AVSEHQLLHDKGKSIQDARRRLFLHKLI-NH2 [A18,L22,K26-PTHrP(1-28)NH] | 177 | 160 |  |
| AVSEHQLLHDKGKSIQDARRRNFLHALI-NH2 [A18,26,N22-PTHrP(1-28)NH] | 161 | 136 |  |
| AVSEHQLLHDKGKSIQDERRRSFLHALI-NH2 [E18,S22,A26-PTHrP(1-28)NH] | 132 | 31.9 |  |
| AVSEHQLLHDKGKSIQDERRRKFLHALI-NH2 [E18,K22,A26-PTHrP(1-28)NH] | 192 | 106 |  |
| AVSEHQLLHDKGKSIQDARRRNFLHKLI-NH2 [A18,N22,K26-PTHrP(1-28)NH] | 172 | 139 |  |
| AVSEHQLLHDKGKSIQDERRRAFLLKLI-NH2 (also called EALK-PTHrP(1-28)) [E18,A22,L25,K26-PTHrP(1-28)NH] |  |  | R0/RG selectivity [8]: 18300; IC50 [9]: 0.1 nM; IC50 [6]: 1740 nM; IC50 [10]: 1740 nM; IC50 [7]: 0.1 nM |
| AVSEHQLLHDKGKSIQDARRRSFLHALI-NH2 [A18,26,S22-PTHrP(1-28)NH] | 148 | 133 |  |
| AVSEHQLLHDKGKSIQDERRRNFLHALI-NH2 [E18,N22,A26-PTHrP(1-28)NH] | 140 | 53.7 |  |
| AVSEHQLLHDKGKSIQDARRRWFLHKLI-NH2 [A18,W22,K26-PTHrP(1-28)NH] | 115 | 136 |  |
| AVSEHQLLHDKGKSIQDERRRWFLHALI-NH2 [E18,W22,A26-PTHrP(1-28)NH] | 116 | 18.8 |  |
| AVSEHQLLHDKGKSIQDERRRKFLHKLI-NH2 [E18,K22,26-PTHrP(1-28)NH] | 208 | 120 |  |
| AVSEHQLLHDKGKSIQDARRRSFLLKLI-NH2 [A18,S22,L25,K26-PTHrP(1-28)NH] |  |  | IC50 [6]: 540 nM; IC50 [7]: 0.1 nM |
| AVSEHQLLHDKGKSIQDERRRLFLHALI-NH2 [E18,L22,A26-PTHrP(1-28)NH] | 125 | 52.5 |  |
| AV[Aib]EIQLMHQ[hArg]AKWLNSMRRVEWLRKKL-NH2 (N-terminus assumed; SMILES CC[C@H](C)[C@H](NC(=O)[C@H](CCC(=O)O)NC(=O)C(C)(C)NC(=O)[C@@H](NC(=O)[C@H](C)N)C(C)C)C(=O)N[C@@H](CCC(N)=O)C(=O)N[C@@H](CC(C)C)C(=O)N[C@@H](CCSC)C(=O)N[C@@H](Cc1c[nH]cn1)C(=O)N[C@@H](CCC(N)=O)C(=O)N[C@@H](CCCCNC(=N)N)C(=O)N[C@@H](C)C(=O)N[C@@H](CCCCN)C(=O)N[C@@H](Cc1c[nH]c2ccccc12)C(=O)N[C@@H](CC(C)C)C(=O)N[C@@H](CC(N)=O)C(=O)N[C@@H](CO)C(=O)N[C@@H](CCSC)C(=O)N[C@@H](CCCNC(=N)N)C(=O)N[C@@H](CCCNC(=N)N)C(=O)N[C@H](C(=O)N[C@@H](CCC(=O)O)C(=O)N[C@@H](Cc1c[nH]c2ccccc12)C(=O)N[C@@H](CC(C)C)C(=O)N[C@@H](CCCNC(=N)N)C(=O)N[C@@H](CCCCN)C(=O)N[C@@H](CCCCN)C(=O)N[C@@H](CC(C)C)C(N)=O)C(C)C) [[Ala^1,12,Aib^3,Gln^10,homoarginine^11,Trp^14,Arg^19]human(h)PTH(1-28)NH2] |  |  | acute cAMP in ROS17/2.8 cells, EC50 (FIG. 21A) [2]: 0.33 nM; cAMP in ROS17/2.8 cells, EC50 [2]: 0.37 nM |
| AVSEHQLLHDKGKSIQDARRRAFLLKLIAE-NH2 [A18,22,L25,K26-PTHrP(1-30)NH] |  |  | IC50 [9]: 0.05 nM; IC50 [6]: 144 nM; IC50 [10]: 144 nM; IC50 [7]: 0.05 nM |
